According to patent US11702475B2, “Cysteine engineered fibronectin type III domain binding molecules” (Janssen Biotech, Inc., priority 2013, dated 2023):
Positions count from the first letter of the chain named. Values belong to the molecule of their own block, whether it stands above or below them.

What was measured:
[1] = Body weight and tolerability in the H292-HGF xenograft study; settings: doses as in E46
Procedure: At the time of routine monitoring, the animals were checked for any effects of tumor growth and treatments on normal behavior, such as mobility, visual estimation of food and water consumption, body weight gain/loss (body weights were measured twice weekly), eye/hair matting and any other abnormal effect.
Animals for which the body weight loss exceeded 20%, or for which the mean tumor size of the group exceeds 2000 mm^3 were euthanized. The study was terminated after two weeks of observation after the final dose.

H292 cells = test: Inhibition of proliferation of H292 cells (HGF-induced); assay type: cell-based, human
From the text: Inhibition of tumor cell proliferation can be measured using standard methods and methods described herein.
It was verified that the enhanced potency for inhibition of EGFR and c-Met phosphorylation with the bispecific EGFR/c-Met molecules translated into an enhanced inhibition of signaling and proliferation. […] The proliferation assay was completed using different combinations EGFR and c-Met binding FN3 domains either as a mixture or linked in a bispecific format. […] This confirmed that the avidity effect observed at the level of the receptors (FIG. 6 and FIG. 7) translates into an improvement in inhibiting cell signaling (Table 17) and cell proliferation (Table 18).
Select EGFR/c-Met molecules were characterized for their affinity to both EGFR and c-Met, their ability to inhibit EGFR and c-Met autophosphorylation, and their effect on proliferation of HGF cells. Binding affinity of the bispecific EGFR/c-Met molecules to recombinant EGFR and/or c-Met extracellular domain was further by surface Plasmon resonance methods using a Proteon Instrument (BioRad) according to protocol described in Example 3.

Molecule: C#Cc1cccc(Nc2ncnc3cc(OCCOC)c(OCCOC)cc23)c1 [Erlotinib, erlotinib]
toxicity / body weight loss / tolerability (in words) [1]: More severe body weight loss

B6: ECB107: bispecific SEQ ID 66: P54AR4-83V23, (AP)5, P114AR9P121-A6v2 (protein)
chain: MLPAPKNLVVSEVTEDSARLSWDDPHAFYESFLIQYQESEKVGEAIVLTVPGSERSYDLTGLKPGTEYTVSIYGVHNVYKDTNIRGLPLSAIFTTAPAPAPAPAPLPAPKNLVVSRVTEDSARLSWTAPDAAFDSFWIRYFEFVGSGEAIVLTVPGSERSYDLTGLKPGTEYVVNILGVKGGSISPPLSAIFTT
modifications: bispecific EGFR/cMet binding molecule
IC50 (H292 cells): 2640 nM

B8: ECB108: bispecific SEQ ID 67: P54AR4-83V23, (AP)5, P114AR9P122-A7v2 (protein)
chain: B6 chain with G145S, S146K, E148D
modifications: bispecific EGFR/cMet binding molecule
IC50 (H292 cells): 11400 nM

B9: ECB96: bispecific SEQ ID 63: P54AR4-83V22, (AP)5, P114AR9P122-A7v2 (protein)
chain: B6 chain with H26W, G145S, S146K, E148D
modifications: bispecific EGFR/cMet binding molecule
IC50 (H292 cells): 9480 nM

More lines, now with the values ahead:

IC50 (H292 cells): 23 nM
B1: ECB15: bispecific SEQ ID 57: P54AR4-83V2, (AP)5, P114AR7P94-A3 (protein)
chain: B6 chain with H26W, I84M, V144L, L177M, S183K
modifications: bispecific EGFR/cMet binding molecule

IC50 (H292 cells): 31 nM
B2: ECB97: bispecific SEQ ID 64: P54AR4-83V22, (AP)5, P114AR7P95-C5V2 (protein)
chain: B6 chain with H26W, V144L, G178S
modifications: bispecific EGFR/cMet binding molecule

IC50 (H292 cells): 574 nM
B3: ECB109: bispecific SEQ ID 68: P54AR4-83V23, (AP)5, P114AR7P95-C5V2 (protein)
chain: B6 chain with V144L, G178S
modifications: bispecific EGFR/cMet binding molecule

IC50 (H292 cells): 383 nM
B4: ECB95: bispecific SEQ ID 62: P54AR4-83V22, (AP)5, P114AR9P121-A6v2 (protein)
chain: B6 chain with H26W
modifications: bispecific EGFR/cMet binding molecule

IC50 (H292 cells): 484 nM
B5: ECB106: bispecific SEQ ID 65: P54AR4-83V23, (AP)5, P114AR7P94-A3v22 (protein)
chain: B6 chain with V144L, S183K
modifications: bispecific EGFR/cMet binding molecule

IC50 (H292 cells): 29.6 nM
B7: ECB94: bispecific SEQ ID 61: P54AR4-83V22, (AP)5, P114AR7P94-A3v22 (protein)
chain: B6 chain with H26W, V144L, S183K
modifications: bispecific EGFR/cMet binding molecule
